The values below come from patent US20110033476A1 (published 2011).

This assay deals with 23 amino acid synthetic peptide corresponding to the M2e domain of A/Fort Worth/1/50 (H1N1) (Influenza A virus A/Fort Worth/1/50 (H1N1)). Put plainly: ELISA, 23mer M2e peptide coated at 1 µg/mL (FIG. 14b). On the technique in general: An ELISA detects its analyte on a solid surface through an enzyme-linked reagent.

In the case of “chimeric mouse V-region/human IgG1 kappa 14C2 antibody”, the EC50 (commonly the concentration giving half of the maximal effect) worked out at 0.01 µg/mL.
